How the values were obtained:
Experiment in all cases: EMSA
[1] = biological target: R2Bm protein (WT) (UniProt V9H052); details: 3' or 5' PBM RNA; reference
[2] = tested on: R2Bm SR/AIR/A mutant SR/AIR/A (double point, presumptive alpha-finger); details: 3' PBM RNA; reduced 13%; with 5' PBM RNA reduced 19-28%
[3] = tested on: R2Bm SR/AGR/A mutant SR/AGR/A (double point, presumptive alpha-finger); details: 3' PBM RNA (upstream binding); increased up to 32%
[4] = tested on: R2Bm GR/AD/A mutant GR/AD/A (double point, presumptive alpha-finger); details: 3' PBM RNA; reduced 24%; with 5' PBM RNA reduced about 13%

Sequence of UniProt V9H052 (V9H052 entry or part of it): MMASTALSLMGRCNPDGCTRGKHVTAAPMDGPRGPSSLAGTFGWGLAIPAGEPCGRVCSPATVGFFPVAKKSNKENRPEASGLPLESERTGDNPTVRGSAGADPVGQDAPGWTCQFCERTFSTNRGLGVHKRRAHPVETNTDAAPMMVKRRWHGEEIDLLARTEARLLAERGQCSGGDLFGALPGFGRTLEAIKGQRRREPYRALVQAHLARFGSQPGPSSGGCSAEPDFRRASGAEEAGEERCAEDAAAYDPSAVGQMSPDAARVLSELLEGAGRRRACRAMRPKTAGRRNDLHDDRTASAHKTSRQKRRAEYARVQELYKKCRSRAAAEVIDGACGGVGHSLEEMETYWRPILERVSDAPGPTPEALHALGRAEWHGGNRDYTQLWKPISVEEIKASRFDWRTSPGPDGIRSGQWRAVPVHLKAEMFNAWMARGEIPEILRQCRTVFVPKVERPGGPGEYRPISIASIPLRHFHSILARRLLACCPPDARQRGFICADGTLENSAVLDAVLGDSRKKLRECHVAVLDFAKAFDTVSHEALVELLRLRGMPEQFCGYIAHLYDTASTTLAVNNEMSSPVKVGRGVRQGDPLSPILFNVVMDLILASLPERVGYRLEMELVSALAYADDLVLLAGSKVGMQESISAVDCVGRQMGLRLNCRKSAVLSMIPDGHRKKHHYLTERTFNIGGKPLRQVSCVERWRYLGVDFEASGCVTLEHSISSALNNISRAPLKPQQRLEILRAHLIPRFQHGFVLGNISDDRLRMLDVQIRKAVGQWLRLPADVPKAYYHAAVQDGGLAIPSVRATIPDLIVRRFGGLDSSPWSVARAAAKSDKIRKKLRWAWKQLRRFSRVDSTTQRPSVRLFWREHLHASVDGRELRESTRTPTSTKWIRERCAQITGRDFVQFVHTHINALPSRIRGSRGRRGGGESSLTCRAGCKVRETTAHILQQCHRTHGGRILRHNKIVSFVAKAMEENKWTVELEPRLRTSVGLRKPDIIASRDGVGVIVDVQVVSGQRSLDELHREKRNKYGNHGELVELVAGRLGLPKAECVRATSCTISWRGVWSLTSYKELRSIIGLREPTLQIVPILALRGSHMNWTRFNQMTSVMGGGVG

## linear 28S rDNA target
[1]
  binding signal (fraction of WT): 1
[2]
  binding signal (fraction of WT): 0.87
[3]
  binding signal (fraction of WT): 1.32
[4]
  binding signal (fraction of WT): 0.76

Reference: patent US20210340562
